T1: human L-SIGN (Homo sapiens, UniProt Q9H2X3)
T1 construct: expressed in transfected cells; host or cells: K562, retroviral transduction
T1 sequence (Q9H2X3 1-399): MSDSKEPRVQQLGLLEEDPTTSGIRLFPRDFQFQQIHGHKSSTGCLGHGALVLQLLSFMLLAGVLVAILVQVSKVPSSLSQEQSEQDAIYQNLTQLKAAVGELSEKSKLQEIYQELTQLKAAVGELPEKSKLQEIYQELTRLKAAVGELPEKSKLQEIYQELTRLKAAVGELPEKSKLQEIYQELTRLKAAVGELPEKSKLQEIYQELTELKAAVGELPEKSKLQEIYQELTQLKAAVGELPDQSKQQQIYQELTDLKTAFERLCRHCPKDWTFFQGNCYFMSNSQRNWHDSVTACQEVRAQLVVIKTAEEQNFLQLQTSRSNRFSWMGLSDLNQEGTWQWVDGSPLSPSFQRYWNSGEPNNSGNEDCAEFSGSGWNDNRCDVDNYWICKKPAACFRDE

T2: human DC-SIGN (Homo sapiens, UniProt Q9NNX6)
T2 construct: expressed in transfected cells
T2 sequence (Q9NNX6 1-404): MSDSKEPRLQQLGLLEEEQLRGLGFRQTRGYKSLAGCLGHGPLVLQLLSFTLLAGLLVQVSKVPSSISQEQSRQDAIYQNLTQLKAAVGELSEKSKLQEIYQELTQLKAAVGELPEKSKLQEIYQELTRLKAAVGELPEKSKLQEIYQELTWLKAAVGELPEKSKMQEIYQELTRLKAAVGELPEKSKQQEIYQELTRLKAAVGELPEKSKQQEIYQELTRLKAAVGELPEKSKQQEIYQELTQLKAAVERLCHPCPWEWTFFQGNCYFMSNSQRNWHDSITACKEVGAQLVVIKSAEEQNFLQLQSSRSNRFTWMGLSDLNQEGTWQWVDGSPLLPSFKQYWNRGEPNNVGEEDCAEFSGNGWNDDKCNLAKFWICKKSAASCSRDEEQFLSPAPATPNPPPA


Key:
[1] = test system: CD11c+ dendritic cells of Tg+ mice; test: Dendritic cell activation in DC-SIGN Tg+ mice (spleen, flow cytometry); format: in vivo, mouse
Procedure: Spleens were harvested 24 hours post dose and analyzed by flow cytometry to look at CD11c+ dendritic cells.

[2] = test system: transgenic mice expressing human DC-SIGN gene (Tg+); test: Plasma cytokine production in transgenic mice expressing human DC-SIGN (ELISA / MesoScaleDiscovery); format: in vivo, mouse
Procedure: FIGS. 5A-5E show exemplary data on DC-SIGN immunoconjugates inducing cytokine production in Tg+ mice. […] Plasma levels were analyzed by ELISA (IP-10 and IFNβ) or MesoScaleDiscovery Multiplex analysis (all other analytes). **** denotes p value of <0.0001 using an ANOVA with Tukey's test compared to Tg-2B2 hlgG1 DAPA C1 group.
Mice were bled 6 hours after dosing to collect plasma for analysis of circulating cytokine levels.

[3] = molecular target: T1, human L-SIGN; test: FACS binding to K562 cells expressing human L-SIGN (selectivity); settings: FACS MFI
Procedure: (§1) The affinity of various antibodies and ADCs to DC-SIGN and its species orthologues was determined using FACS. Purified IgGs were titrated to determine EC50 values for binding to cell surface expressed DC-SIGN.
(§2) For this purpose, human DC-SIGN expressing or cynomolgus monkey DC-SIGN expressing stable CHO cell lines or K562 expressing DC-SIGN or K562 expressing L-SIGN cell lines were checked for density and viability using VICELL (Beckman Coulter), and washed once with 4° C. PBS. Cells were stained with DAPI (0.5 ug/mL) diluted in PBS for 30 min on ice. Cells were diluted into 4° C. FACS buffer (PBS, 10 mM EDTA, 2% FBS). 125 μl of cells were seeded (10,000 cells/well) into 96-well v-bottom plates (Nunc cat#442587) and centrifuged for 4 min at 1500 rpm at 4° C. Supernatant was removed. Cells were incubated with a serial dilution of each anti-DC-SIGN antibody in FACS buffer at concentrations ranging across several logs with a top concentration no higher than 50 μg/mL for 60 minutes at 4° C. Following incubation, cells were spun down (1500 rpm, 4 min, 4° C.) and washed two times with FACS buffer. A fluorophore-conjugated anti-hFc gamma-AF-647 (Southern Biotechnology) detection antibody was added at 1:400 and samples were incubated for 1 h on ice in the dark. Following incubation, FACS buffer was added, and the cells were spun down (1500 rpm, 4 min, 4° C.) and washed two times with FACS buffer. After the final wash, cells were resuspended in Fixative Buffer (Biolegend, 420801) and 90 μl of FACS buffer followed by readout on the flow cytometry machine (BD LSRFortessa Cell Analyzer; Cat #647177). Geometric Mean fluorescence intensity (MFI) of live, single cells was calculated in Flowjo 10.4.2 and exported into Graphpad Prism7 for EC50 determination.
Selectivity was assessed by measuring apparent binding affinities to isogenic cell pairs engineered to overexpress DC-SIGN as well as cell lines expressing DC-SIGN paralog L-SIGN.

[4] = test system: cynomolgus monkey DC-SIGN; test: FACS binding to CHO cells stably expressing cynomolgus monkey DC-SIGN; settings: FACS MFI, average
Procedure: as §1, §2
In a similar experiment the antibodies were tested for cross-reactivity using engineered isogenic matched cell line.

[5] = molecular target: T2, human DC-SIGN; test: FACS binding to CHO cells stably expressing human DC-SIGN; settings: FACS MFI, average
Procedure: as §1, §2

[6] = molecular target: T2, human DC-SIGN; test: FACS binding to K562 cells expressing human DC-SIGN; settings: FACS MFI
Procedure: as §1, §2

Chain of cynomolgus monkey DC-SIGN (as listed by the source): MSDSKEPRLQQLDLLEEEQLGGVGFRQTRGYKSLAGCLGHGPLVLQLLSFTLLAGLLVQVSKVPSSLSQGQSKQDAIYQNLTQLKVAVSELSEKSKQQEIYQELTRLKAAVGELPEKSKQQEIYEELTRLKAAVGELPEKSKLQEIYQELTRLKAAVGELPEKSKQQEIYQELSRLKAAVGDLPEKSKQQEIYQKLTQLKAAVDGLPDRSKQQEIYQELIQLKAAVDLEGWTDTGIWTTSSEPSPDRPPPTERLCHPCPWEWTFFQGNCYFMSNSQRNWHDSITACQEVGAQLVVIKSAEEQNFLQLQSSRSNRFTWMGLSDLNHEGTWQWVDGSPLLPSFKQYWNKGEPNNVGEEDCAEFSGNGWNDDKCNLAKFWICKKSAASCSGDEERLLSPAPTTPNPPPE

Row | Molecule | CD86 upregulation on dendritic cells (DC activation) [1] | circulating plasma IL-12p70 [2] | circulating plasma IP-10 [2] | human L-SIGN K562 EC50 [3] [µg/mL] | cyno DC-SIGN CHO EC50 (ug/mL) ave. [4] [µg/mL] | human DC-SIGN CHO EC50 (ug/mL) ave. [5] [µg/mL] | human DC-SIGN K562 EC50 [6] [µg/mL]
1 | 2B2 (DAPA) DAR2 C1 (conjugate) VH: QVQLVQSGAEVKKPGASVKVSCKASGYTFTNYGINWVRQAPGQRLEWMGYIYIGNDYTEYNERFKGRVTITSDTSASTAYMELSSLRSEDTAVYYCARLYYGSSLYSYAMDYWGQGTTVTVSS VL: DIVMTQSPLSLPVTPGEPASISCRSSKSLLHSSGNTYLYWFLQKPGQSPQLLISRMSNLASGVPDRFSGSGSGTDFTLKISRVEAEDVGVYYCMQHLEYPYTFGGGTKVEIK | induced DC activation | induced | induced | – | – | – | –
2 | 958N05 S93A: optimization of sequences by removal of post-translational modifications, non-preferred sites; substitutions made by site directed mutagenesis (antibody) heavy: QVTLRESGPALVKPTQTLTLTCTFSGFSLSTSGISVSWIRQPPGKALEWLALIDWDDDKYYSTSLKTRLTISKDTSKNQVVLTMTNMDPVDTATYYCARTPSGSYGRYFDLWGRGTLVTVSSASTKGPSVFPLAPSSKSTSGGTAALGCLVKDYFPCPVTVSWNSGALTSGVHTFPAVLQSSGLYSLSSVVTVPSSSLGTQTYICNVNHKPSNTKVDKRVEPKSCDKTHTCPPCPAPELLGGPSVFLFPPKPKDTLMISRTPEVTCVVVAVSHEDPEVKFNWYVDGVEVHNAKTKPREEQYNSTYRVVSVLTVLHQDWLNGKEYKCKVSNKALAAPIEKTISKAKGQPREPQVYTLPPSREEMTKNQVSLTCLVKGFYPCDIAVEWESNGQPENNYKTTPPVLDSDGSFFLYSKLTVDKSRWQQGNVFSCSVMHEALHNHYTQKSLSLSPGK light: DIQLTQSPSTLSASVGDRVTITCRASQSISNWLAWYQQKPGKAPKLLIYKASSLESGVPSRFTGSGSGTEFTLTISSLQPDDFATYYCQQYNAYWTFGQGTKVEIKRTVAAPSVFIFPPSDEQLKSGTASVVCLLNNFYPREAKVQWKVDNALQSGNSQESVTEQDSKDSTYSLSSTLTLSKADYEKHKVYACEVTHQGLSSPVTKSFNRGEC | – | – | – | >10 | 0.16 | 0.13 | 0.060
3 | 960K03 N92Q: optimization of sequences by removal of post-translational modifications, non-preferred sites; substitutions made by site directed mutagenesis (antibody) heavy: QVTLRESGPALVKPTQTLTLTCTFSGFSLSTGGMSVSWIRQPPGKALEWLALIDWDDDKYYSTSLKTRLTISKDTSKNQLVLTMTNMDPVDTATYYCARAHSGSYFDFWGQGTLVTVSSASTKGPSVFPLAPSSKSTSGGTAALGCLVKDYFPCPVTVSWNSGALTSGVHTFPAVLQSSGLYSLSSVVTVPSSSLGTQTYICNVNHKPSNTKVDKRVEPKSCDKTHTCPPCPAPELLGGPSVFLFPPKPKDTLMISRTPEVTCVVVAVSHEDPEVKFNWYVDGVEVHNAKTKPREEQYNSTYRVVSVLTVLHQDWLNGKEYKCKVSNKALAAPIEKTISKAKGQPREPQVYTLPPSREEMTKNQVSLTCLVKGFYPCDIAVEWESNGQPENNYKTTPPVLDSDGSFFLYSKLTVDKSRWQQGNVFSCSVMHEALHNHYTQKSLSLSPGK light: DIQMTQSPSTLSASVGDRVTITCRASQRISNWLAWYQQKPGKAPKLLIYKASSLESGVPSRFSGSGSGTEFTLTISSLQPDDFATYYCQQFQSYWTFGQGTKVEIKRTVAAPSVFIFPPSDEQLKSGTASVVCLLNNFYPREAKVQWKVDNALQSGNSQESVTEQDSKDSTYSLSSTLTLSKADYEKHKVYACEVTHQGLSSPVTKSFNRGEC | – | – | – | >10 | 0.04 | 0.08 | 0.021
